Patent US20230091175A1 (SYSMEX, published 2023)

B1: mouse anti-human IL-8 antibody (clone 166-1), original (unmodified) (Fab, V domains shown, not shown: a dimerising Fc or GST)
VH: EVKLVESGGGLVKPGGSLKLSCAASGFTFNNYAMSWVRQTPEKRLEWVASISSGGNTYYPDSVKGRFTLSRDNARNILYLQMSRLRSEDTAMYYCARDKLRLPNWYFDVWGAGTTVTVSS
VL: DIVLTQSPPSLAVSLGQRATISCKASQSVDYDGDSYMNWYQQKPGQPPKVLIYGASNLESGIPARFSGSGSGTDFTLNIYPVEEEDAATYYCQQSNEDPPTFGGGTKLEIKR
notes: Fab; the light entry holds only the variable domain; a His tag is implied by Ni-NTA purification but not described; also called Anti-IL-8 antibody (clone 166-1)
B2: R5 variant of anti-IL-8 antibody (clone 166-1) (Fab, V domains shown, not shown: a dimerising Fc or GST)
VH: EVKLVESGGGLVKPGGSLKLSCAASGFTFNNYAMSWVRQTPEKRLEWVASISSGGNTYYPDSVKGRFTLSRDNARNILYLQMSRLRSEDTAMYYCARDKLRLPNWYFDVWGAGTTVTVSS
VL: DIVLTQSPPSLAVSLGQRATISCKASQSVDYDGDSYMNWYQQKPGQPPKVLIYGASNLESGIPARFRGRGRGTRFRLNIYPVEEEDAATYYCQQSNEDPPTFGGGTKLEIKR
notes: Light chain positions 63, 65, 67, 70, 72 (Chothia) changed to Arg; Fab
B3: R4 variant of anti-IL-8 antibody (clone 166-1) (Fab, V domains shown, not shown: a dimerising Fc or GST)
VH: EVKLVESGGGLVKPGGSLKLSCAASGFTFNNYAMSWVRQTPEKRLEWVASISSGGNTYYPDSVKGRFTLSRDNARNILYLQMSRLRSEDTAMYYCARDKLRLPNWYFDVWGAGTTVTVSS
VL: DIVLTQSPPSLAVSLGQRATISCKASQSVDYDGDSYMNWYQQKPGQPPKVLIYGASNLESGIPARFRGRGRGTRFTLNIYPVEEEDAATYYCQQSNEDPPTFGGGTKLEIKR
notes: Light chain positions 63, 65, 67, 70 (Chothia) changed to Arg; Fab
B4: R3 variant of anti-IL-8 antibody (clone 166-1) (Fab, V domains shown, not shown: a dimerising Fc or GST)
VH: EVKLVESGGGLVKPGGSLKLSCAASGFTFNNYAMSWVRQTPEKRLEWVASISSGGNTYYPDSVKGRFTLSRDNARNILYLQMSRLRSEDTAMYYCARDKLRLPNWYFDVWGAGTTVTVSS
VL: DIVLTQSPPSLAVSLGQRATISCKASQSVDYDGDSYMNWYQQKPGQPPKVLIYGASNLESGIPARFRGRGRGTDFTLNIYPVEEEDAATYYCQQSNEDPPTFGGGTKLEIKR
notes: Light chain positions 63, 65, 67 (Chothia) changed to Arg; Fab
B5: mouse anti-human IL-6 antibody (clone 58-1), original (unmodified) (Fab, V domains shown, not shown: a dimerising Fc or GST)
VH: EVQLQQSGPELVKPGASVKMSCKASGYTFTSYVMHWVKQKPGQGLEWIGYINPYNDGTKYNEKFKGKATLTSDKSSSTAYMELSSLTSEDSAVYYCAREGYGNLERDCWGQGTSVTVSS
VL: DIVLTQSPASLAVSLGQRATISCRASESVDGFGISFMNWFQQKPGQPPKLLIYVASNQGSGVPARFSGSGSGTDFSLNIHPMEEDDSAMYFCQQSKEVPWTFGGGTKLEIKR
notes: The heavy entry is VH-CH1 with part of the hinge; the light entry holds only the variable domain; Purified on Ni-NTA, so a His tag is implied but not described; also called Anti-IL-6 antibody (clone 58-1)
B6: R3 variant of anti-IL-6 antibody (clone 58-1) (Fab, V domains shown, not shown: a dimerising Fc or GST)
VH: EVQLQQSGPELVKPGASVKMSCKASGYTFTSYVMHWVKQKPGQGLEWIGYINPYNDGTKYNEKFKGKATLTSDKSSSTAYMELSSLTSEDSAVYYCAREGYGNLERDCWGQGTSVTVSS
VL: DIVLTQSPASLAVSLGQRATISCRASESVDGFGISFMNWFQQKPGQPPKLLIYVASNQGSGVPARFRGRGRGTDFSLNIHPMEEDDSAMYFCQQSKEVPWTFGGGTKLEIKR
notes: Light chain positions 63, 65, 67 (Chothia) changed to Arg; Fab; a His tag is implied by Ni-NTA purification but not described
B7: R4 variant of anti-IL-6 antibody (clone 58-1) (Fab, V domains shown, not shown: a dimerising Fc or GST)
VH: EVQLQQSGPELVKPGASVKMSCKASGYTFTSYVMHWVKQKPGQGLEWIGYINPYNDGTKYNEKFKGKATLTSDKSSSTAYMELSSLTSEDSAVYYCAREGYGNLERDCWGQGTSVTVSS
VL: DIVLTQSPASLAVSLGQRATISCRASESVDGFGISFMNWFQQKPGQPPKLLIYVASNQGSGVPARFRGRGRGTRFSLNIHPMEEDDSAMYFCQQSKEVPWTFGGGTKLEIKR
notes: as for B3
B8: R5 variant of anti-IL-6 antibody (clone 58-1) (Fab, V domains shown, not shown: a dimerising Fc or GST)
VH: EVQLQQSGPELVKPGASVKMSCKASGYTFTSYVMHWVKQKPGQGLEWIGYINPYNDGTKYNEKFKGKATLTSDKSSSTAYMELSSLTSEDSAVYYCAREGYGNLERDCWGQGTSVTVSS
VL: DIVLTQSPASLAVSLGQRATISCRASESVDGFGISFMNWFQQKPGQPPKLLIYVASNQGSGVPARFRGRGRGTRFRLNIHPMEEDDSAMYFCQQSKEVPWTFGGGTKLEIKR
notes: as for B2
B9: mouse anti-human IL-6 antibody (clone 44-15), original (unmodified) (Fab, V domains shown, not shown: a dimerising Fc or GST)
VH: DVQLQESGPGLVKPSQTVSLTCTVTGISITTGNYRWSWIRQFPGNKLEWIGYIYYSGAITYNPSLTSRTTITRDTSMNQFFLEMISLTAEDTATYYCARDRYDYAVDFWGQGTSVTVSS
VL: DIQMTQSPASLSASVGETVTITCRSSENIYSFLTWFQQRQGKSPHLLVYYANTLAEGVPSRFSGSGSGTQFSLQINSLQPEDFGTYYCQHHYGTPWTFGGGTRLEIKR
notes: Fab; the light entry holds only the variable domain; a His tag is implied by Ni-NTA purification but not described; also called Anti-IL-6 antibody (clone 44-15)
B10: mouse anti-human IL-8 antibody (clone 146-1), original (unmodified) (Fab, V domains shown, not shown: a dimerising Fc or GST)
VH: EVQLVESGGGLVKPGGSLKLSCAASGFTFSSYAMSWVRQTPEKRLEWVATISNGGSYTYYPDSLKGRFTISRDNAKNTLYLQMSSLRSEDTAIYYCARGITGGVYFDYWGQGTTLTVSS
VL: DIQMTQSPASLSASVGETVTITCRASENIYSYLAWYQQKQGKSPHLLVYDAETLAEGVPSRFSGSGSGTQFSLKINSLQPEDFGSYYCQHHYGTPWTFGGGTKLEIKR
notes: Fab; the light entry holds only the variable domain; a His tag is implied by Ni-NTA purification but not described; also called Anti-IL-8 antibody (clone 146-1)
B11: R3 variant of anti-IL-6 antibody (clone 44-15) (Fab, V domains shown, not shown: a dimerising Fc or GST)
VH: DVQLQESGPGLVKPSQTVSLTCTVTGISITTGNYRWSWIRQFPGNKLEWIGYIYYSGAITYNPSLTSRTTITRDTSMNQFFLEMISLTAEDTATYYCARDRYDYAVDFWGQGTSVTVSS
VL: DIQMTQSPASLSASVGETVTITCRSSENIYSFLTWFQQRQGKSPHLLVYYANTLAEGVPSRFRGRGRGTQFSLQINSLQPEDFGTYYCQHHYGTPWTFGGGTRLEIKR
notes: as for B4
B12: R3 variant of anti-IL-8 antibody (clone 146-1) (Fab, V domains shown, not shown: a dimerising Fc or GST)
VH: EVQLVESGGGLVKPGGSLKLSCAASGFTFSSYAMSWVRQTPEKRLEWVATISNGGSYTYYPDSLKGRFTISRDNAKNTLYLQMSSLRSEDTAIYYCARGITGGVYFDYWGQGTTLTVSS
VL: DIQMTQSPASLSASVGETVTITCRASENIYSYLAWYQQKQGKSPHLLVYDAETLAEGVPSRFRGRGRGTQFSLKINSLQPEDFGSYYCQHHYGTPWTFGGGTKLEIKR
notes: as for B4
B13: R4 variant of anti-IL-6 antibody (clone 44-15) (Fab, V domains shown, not shown: a dimerising Fc or GST)
VH: DVQLQESGPGLVKPSQTVSLTCTVTGISITTGNYRWSWIRQFPGNKLEWIGYIYYSGAITYNPSLTSRTTITRDTSMNQFFLEMISLTAEDTATYYCARDRYDYAVDFWGQGTSVTVSS
VL: DIQMTQSPASLSASVGETVTITCRSSENIYSFLTWFQQRQGKSPHLLVYYANTLAEGVPSRFRGRGRGTRFSLQINSLQPEDFGTYYCQHHYGTPWTFGGGTRLEIKR
notes: as for B3
B14: R4 variant of anti-IL-8 antibody (clone 146-1) (Fab, V domains shown, not shown: a dimerising Fc or GST)
VH: EVQLVESGGGLVKPGGSLKLSCAASGFTFSSYAMSWVRQTPEKRLEWVATISNGGSYTYYPDSLKGRFTISRDNAKNTLYLQMSSLRSEDTAIYYCARGITGGVYFDYWGQGTTLTVSS
VL: DIQMTQSPASLSASVGETVTITCRASENIYSYLAWYQQKQGKSPHLLVYDAETLAEGVPSRFRGRGRGTRFSLKINSLQPEDFGSYYCQHHYGTPWTFGGGTKLEIKR
notes: as for B3
B15: R5 variant of anti-IL-6 antibody (clone 44-15) (Fab, V domains shown, not shown: a dimerising Fc or GST)
VH: DVQLQESGPGLVKPSQTVSLTCTVTGISITTGNYRWSWIRQFPGNKLEWIGYIYYSGAITYNPSLTSRTTITRDTSMNQFFLEMISLTAEDTATYYCARDRYDYAVDFWGQGTSVTVSS
VL: DIQMTQSPASLSASVGETVTITCRSSENIYSFLTWFQQRQGKSPHLLVYYANTLAEGVPSRFRGRGRGTRFRLQINSLQPEDFGTYYCQHHYGTPWTFGGGTRLEIKR
notes: as for B2
B16: R5 variant of anti-IL-8 antibody (clone 146-1) (Fab, V domains shown, not shown: a dimerising Fc or GST)
VH: EVQLVESGGGLVKPGGSLKLSCAASGFTFSSYAMSWVRQTPEKRLEWVATISNGGSYTYYPDSLKGRFTISRDNAKNTLYLQMSSLRSEDTAIYYCARGITGGVYFDYWGQGTTLTVSS
VL: DIQMTQSPASLSASVGETVTITCRASENIYSYLAWYQQKQGKSPHLLVYDAETLAEGVPSRFRGRGRGTRFRLKINSLQPEDFGSYYCQHHYGTPWTFGGGTKLEIKR
notes: as for B2

What was measured:
[1] = molecular target: T1, interleukin 8 (CXCL8) (100-175: Shenandoah Biotechnology, Inc.) (UniProt P10145 28-99); test: SPR (Biacore 8K); affinity ratio with the original antibody as 1.0
T1 construct: the antibodies tested are mouse anti-human IL-8 antibodies; also called IL-8
T1 sequence (looked up): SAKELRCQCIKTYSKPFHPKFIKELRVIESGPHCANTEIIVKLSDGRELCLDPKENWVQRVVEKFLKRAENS
Description: (§1) (4.1) For anti-IL-6 antibody, anti-IL-8 antibody, and anti-IL-12 antibody Affinity of the original antibodies and variants was measured using Biacore (registered trademark) 8K (Cytiva). As antigens, human IL6 protein, His and GST tags (active) (GTX00094-pro: GeneTex, Inc.), interleukin 8 (CXCL8) (100-175: Shenandoah Biotechnology, Inc.), and human IL 12 protein (Recombinant His, C-terminus) (aa23-328) (LS-G134297-50: LSBio, Inc.) were used. The antigen was immobilized to a sensor chip for Biacore (registered trademark) Series S Sensor Chip CM4 (GE Healthcare). Each antibody solution obtained in the above (3.2) was diluted to prepare an antibody solution for measurement. The concentration of each antibody in the antibody solution for measurement was as follows. In the solutions of the anti-IL-6 antibody (58-1) and its R3, R4 and R5 variants, the concentration was 100 nM, 50 nM, 25 nM, 12.5 nM and 6.25 nM. In the solution of the anti-IL-6 antibody (44-15), the concentration was 100 nM, 50 nM, 25 nM, 12.5 nM and 6.25 nM, and in the solutions of its R3, R4 and R5 variants, the concentration was 50 nM, 25 nM, 12.5 nM, 6.25 nM and 3.13 nM. In the solutions of the anti-IL-8 antibody (166-1) and its R3, R4 and R5 variants, the concentration was 100 nM, 50 nM, 25 nM, 12.5 nM and 6.25 nM. In the anti-IL-8 antibody (146-1) solution, the concentration was 100 nM, 50 nM, 25 nM, 12.5 nM and 6.25 nM, in the solution of its R3 variant, the concentration was 50 nM, 25 nM, 12.5 nM, 6.25 nM and 3.13 nM, and in the solutions of its R4 and R5 variants, the concentration was 25 nM, 12.5 nM, 6.25 nM, 3.13 nM and 1.56 nM. In the anti-IL-12 antibody solution, the concentration was 50 nM, 25 nM, 12.5 nM, 6.25 nM and 3.13 nM, in the solution of its R3 variant, the concentration was 25 nM, 12.5 nM, 6.25 nM, 3.13 nM and 1.56 nM, and in the solution of its R4 variant, the concentration was 12.5 nM, 6.25 nM, 3.13 nM, 1.56 nM and 0.78 nM.
(§2) The antibody solutions for measurement at each concentration were delivered to Biacore (registered trademark) 8K (Cytiva) (association time of 120 seconds and dissociation time of 1200 seconds). Measurement data was analyzed using Biacore (registered trademark) Evaluation software, and the data on the affinity of each antibody for an antigen was obtained.

[2] = molecular target: T1, interleukin 8 (CXCL8) (100-175: …); test: SPR (Biacore 8K), antigen immobilized on CM4 chip, antibody as analyte
Description: as §1, §2

[3] = molecular target: T2, human IL6 protein, His and GST tags (active) (GTX00094-pro: GeneTex, Inc.) (human, UniProt P05231 30-212, limits assumed); test: SPR (Biacore 8K); affinity ratio with the original antibody as 1.0
T2 construct: Bought reagent; not shown: His and GST tags
Description: as §1, §2

[4] = molecular target: T2, human IL6 protein, His and GST tags …; test: SPR (Biacore 8K), antigen immobilized on CM4 chip, antibody as analyte
Description: as §1, §2

Binder | KD ratio [1] | Kd [2] | KD ratio [3] | Kd [4]
B1 | 1 | 1.64 nM |  | 
B2 | 4.2 | 0.389 nM |  | 
B3 | 2.8 | 0.595 nM |  | 
B4 | 1.4 | 1.17 nM |  | 
B5 |  |  | 1 | 0.198 nM
B6 |  |  | 2.4 | 0.0812 nM
B7 |  |  | 4.2 | 0.0472 nM
B8 |  |  | 7.1 | 0.0279 nM
B9 |  |  | 1 | 20.4 nM
B10 | 1 | 15.3 nM |  | 
B11 |  |  | 2.9 | 7.16 nM
B12 | 2.6 | 5.8 nM |  | 
B13 |  |  | 2.4 | 8.38 nM
B14 | 4.9 | 3.14 nM |  | 
B15 |  |  | 4.6 | 4.4 nM
B16 | 6.4 | 2.4 nM |  | 
